In publication PMC10873206:

Target: UBE2R1 E108A (human) (UniProt P49427)
Sequence (P49427 whole entry E108A): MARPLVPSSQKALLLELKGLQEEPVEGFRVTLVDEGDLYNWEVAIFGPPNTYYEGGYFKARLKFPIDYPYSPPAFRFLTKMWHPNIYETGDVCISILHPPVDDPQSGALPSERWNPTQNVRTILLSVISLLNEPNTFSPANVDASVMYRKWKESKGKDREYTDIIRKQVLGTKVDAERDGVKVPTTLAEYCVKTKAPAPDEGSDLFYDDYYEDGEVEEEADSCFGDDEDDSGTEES

- Km of unanchored D77 acceptor ubiquitin for UBE2R1 in di-ubiquitin synthesis (K48R donor ubiquitin, neddylated CUL2–RBX1 WT); saturation not reached, top concentration given: > 800 µM
Substance: D77 acceptor ubiquitin R54D (from UniProt P0CG48 1-76) (natural protein)
